ELISA, s/n Ratio and Kd data for 28 molecules are collected here from paper PMC10977697 (PLOS ONE, 2024).

Sequences and labels used below:
T1: Notch2Long (Notch2 EGF6-EGF12) (human, UniProt Q04721 219-418, biotin on the N-terminal Avi tag (enzymatic))
T1 construct: also called N2L protein; hNotch2; not shown: Avi tag, N-terminal, kept
T1 sequence (looked up): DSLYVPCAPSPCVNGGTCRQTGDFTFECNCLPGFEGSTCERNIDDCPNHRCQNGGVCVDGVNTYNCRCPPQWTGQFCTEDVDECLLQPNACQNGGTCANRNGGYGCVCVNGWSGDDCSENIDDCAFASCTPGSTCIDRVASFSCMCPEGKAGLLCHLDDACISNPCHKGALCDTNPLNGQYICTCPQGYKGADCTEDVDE

B1: Her3-Fc_ChTx1 displayed on M13 phage (designed binder)
chain: VSCTTSKECWSVCQRLHNTSWGEQCVTKFCKCEE
notes: Charybdotoxin scaffold; source: M13 phage from E. coli, culture supernatant
B2: Notch2NRR (Notch2 NRR domain) (domain or fragment)
chain: ATCLSQYCADKARDGVCDEACNSHACQWDGGDCSLTMENPWANCSSPLPCWDYINNQCDELCNTVECLFDNFECQGNSKTCKYDKYCADHFKDNHCDQGCNSEECGWDGLDCAADQPENLAEGTLVIVVLMPPEQLLQDARSFLRALGTLLHTNLRIKRDSQGELMVYPYYGEKSAAMKKQRMTRRSLPGEQEQEVAGSKVFLEIDNRQCVQDSDHCFKNTDAAAALLASHAIQGTLSYPLVSVVSESLTPERTQ
modifications: biotin on the N-terminal Avi tag (enzymatic)
notes: also called NRR protein; not shown: Avi tag, N-terminal, kept
B3: Her3-Fc_ChTx2 displayed on M13 phage (designed binder)
chain: VSCTTSKECWSVCQRLHNTSWLGSCMERFCKCVD
notes: as for B1

Assay [1] concerns the target Her3-Fc (UniProt P21860 20-643). Kind of assay: ELISA. The conditions noted are these: one partner purified.
The target in assay [2] is Her3-Fc Avi-tag (UniProt P21860 20-643). The assay is described as follows: SPR. The settings on record: both partners purified.
Her3-Fc Avi-tag, sequence (P21860 20-643): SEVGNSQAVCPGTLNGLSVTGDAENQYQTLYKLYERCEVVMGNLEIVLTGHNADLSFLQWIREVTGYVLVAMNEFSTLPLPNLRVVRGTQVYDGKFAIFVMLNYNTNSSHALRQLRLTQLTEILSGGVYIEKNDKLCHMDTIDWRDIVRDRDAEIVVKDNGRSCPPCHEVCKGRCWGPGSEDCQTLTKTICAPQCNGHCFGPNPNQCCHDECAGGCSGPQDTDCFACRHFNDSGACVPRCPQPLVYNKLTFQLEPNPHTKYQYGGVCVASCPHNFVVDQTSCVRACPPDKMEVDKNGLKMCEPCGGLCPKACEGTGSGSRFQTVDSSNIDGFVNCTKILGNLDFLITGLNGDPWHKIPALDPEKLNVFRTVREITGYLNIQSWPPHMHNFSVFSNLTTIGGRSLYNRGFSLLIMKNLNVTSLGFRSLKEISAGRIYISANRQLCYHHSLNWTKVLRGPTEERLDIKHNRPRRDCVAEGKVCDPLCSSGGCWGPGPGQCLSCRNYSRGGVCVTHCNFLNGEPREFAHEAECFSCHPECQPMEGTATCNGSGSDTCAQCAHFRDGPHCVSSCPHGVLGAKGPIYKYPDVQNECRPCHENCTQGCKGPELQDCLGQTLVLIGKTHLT
The target in assay [3] is T2, HtrA1 (human, UniProt Q92743 23-480, biotin on lysines (Sulfo-NHS-LC-biotin) for panning and SPR).
T2 construct: also called HtrA1 FL; human full-length HtrA1
T2 sequence (Q92743 23-480): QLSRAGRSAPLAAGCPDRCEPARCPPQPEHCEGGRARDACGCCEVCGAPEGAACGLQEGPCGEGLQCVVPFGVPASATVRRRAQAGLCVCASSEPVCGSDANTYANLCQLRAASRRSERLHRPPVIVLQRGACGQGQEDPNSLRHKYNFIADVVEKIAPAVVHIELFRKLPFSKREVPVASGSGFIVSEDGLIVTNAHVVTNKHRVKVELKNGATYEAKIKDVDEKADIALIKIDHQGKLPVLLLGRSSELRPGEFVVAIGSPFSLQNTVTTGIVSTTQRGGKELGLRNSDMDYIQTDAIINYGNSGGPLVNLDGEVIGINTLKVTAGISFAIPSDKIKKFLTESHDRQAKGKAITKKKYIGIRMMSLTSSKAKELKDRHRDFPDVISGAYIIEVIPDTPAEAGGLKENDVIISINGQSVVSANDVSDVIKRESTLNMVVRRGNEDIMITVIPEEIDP
Kind of assay: SPR. The settings on record: both partners purified.

The target of assay [4] is T1, Notch2Long (Notch2 EGF6-EGF12). The assay is described as follows: ELISA. The settings on record: one partner purified.
The target is the same in assay [5]. The assay is described as follows: SPR. The conditions noted are these: both partners purified.
For assay [6], the target named is T3, PCSK9 (human, UniProt Q8NBP7 31-692, biotin on lysines (Sulfo-NHS-LC-biotin)).
T3 construct: also called PCSK9FL; hPCSK9 FL
T3 sequence (Q8NBP7 31-692): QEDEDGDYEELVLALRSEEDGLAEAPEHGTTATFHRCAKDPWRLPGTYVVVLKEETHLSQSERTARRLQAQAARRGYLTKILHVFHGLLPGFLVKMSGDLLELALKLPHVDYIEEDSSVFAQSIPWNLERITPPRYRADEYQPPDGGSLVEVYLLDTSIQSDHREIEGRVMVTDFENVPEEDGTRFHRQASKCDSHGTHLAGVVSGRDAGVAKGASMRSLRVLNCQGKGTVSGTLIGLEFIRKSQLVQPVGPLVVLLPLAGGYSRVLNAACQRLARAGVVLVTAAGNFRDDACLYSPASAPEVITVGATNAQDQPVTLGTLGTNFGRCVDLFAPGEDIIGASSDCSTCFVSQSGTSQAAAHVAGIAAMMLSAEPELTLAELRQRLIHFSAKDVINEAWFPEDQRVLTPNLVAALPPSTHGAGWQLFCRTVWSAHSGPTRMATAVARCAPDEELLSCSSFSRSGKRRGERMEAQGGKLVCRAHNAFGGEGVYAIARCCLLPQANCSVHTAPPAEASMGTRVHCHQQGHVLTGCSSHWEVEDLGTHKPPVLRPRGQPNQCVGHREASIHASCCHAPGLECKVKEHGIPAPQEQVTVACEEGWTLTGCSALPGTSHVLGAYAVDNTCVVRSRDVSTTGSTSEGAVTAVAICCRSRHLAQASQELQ
Kind of assay: SPR. The conditions noted are these: both partners purified.

Assay [7] has as its target T3, PCSK9. Kind of assay: ELISA. The conditions noted are these: one partner purified.
Assay [8] has as its target T1, Notch2Long (Notch2 EGF6-EGF12). The assay is described as follows: SPR. The conditions noted are these: both partners purified. The source holds these as a separate data set.
For assay [9], the target named is T4, N2N-AVR-n6.
T4 construct: AVR9 scaffold; source: synthetic peptide, folded in vitro
The assay is described as follows: SPR. The settings on record: both partners purified.

In assay [10] the target is T5, N2N-AVR-19.
T5 construct: AVR9 scaffold; source: synthetic peptide, folded in vitro
The assay is described as follows: SPR. The conditions noted are these: both partners purified.

Assay [11] addresses B2. Kind of assay: SPR. The settings on record: both partners purified.
The target of assay [12] is T6, PCSK9ΔCRD (PCSK9 lacking the C-terminal Cys-rich domain CRD) (human, UniProt Q8NBP7 31-452, biotin on lysines (Sulfo-NHS-LC-biotin)).
T6 construct: also called PCSK9DCRD; PCSK9dCRDTEV
T6 sequence (Q8NBP7 31-452, stated change not applied): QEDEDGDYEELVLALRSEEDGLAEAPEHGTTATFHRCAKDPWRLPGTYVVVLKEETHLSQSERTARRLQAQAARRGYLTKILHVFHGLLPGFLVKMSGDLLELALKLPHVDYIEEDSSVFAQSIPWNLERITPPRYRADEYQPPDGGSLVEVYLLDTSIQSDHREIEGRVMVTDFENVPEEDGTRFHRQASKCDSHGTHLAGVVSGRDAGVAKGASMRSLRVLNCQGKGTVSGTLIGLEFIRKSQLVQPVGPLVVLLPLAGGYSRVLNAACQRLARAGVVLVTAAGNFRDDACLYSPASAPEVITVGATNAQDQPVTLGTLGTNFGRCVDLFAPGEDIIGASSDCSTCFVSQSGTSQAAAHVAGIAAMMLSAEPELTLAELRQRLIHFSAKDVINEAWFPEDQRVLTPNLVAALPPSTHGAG
Kind of assay: ELISA. The settings on record: one partner purified.

Her3-Fc, sequence (P21860 20-643): as the sequence (P21860 20-643) above

B1: in assay [1], the ELISA is 1.7 and the s/n Ratio was 22.6.

VSCTTSKECWSVCQRLHNTSWGEQCVTKFCKCEE (designed binder, Charybdotoxin scaffold) [Her3-Fc_ChTx1]: in assay [2], the Kd was greater than 10 µM.

Regarding WIPCISAALGCSCKNKVCYIFSKHLCGESCV (designed binder) [HtrA1_CirA65], binding in assay [3] was put at a Kd of 2.7 µM. This counts as single-digit micromolar.

Turning to GCGWTLAHCKQDSDCLAGCVCQPRWVCG (designed binder) [N2L-EET-29 displayed on M13 phage], in [4], the ELISA came to 0.6 and the s/n Ratio stood at 4.4.

GCGWTLAHCKQDSDCLAGCVCQPRWVCG (designed binder) [N2L-EET-29] yielded a Kd in assay [5] of 102 µM.

For the molecule GPTQSKYGMCGGIGYSGPTVCASGTTCQVLDPYTSQCLPGAS (designed binder) [PCSK9FL_CBD2], the Kd in assay [6] came out at 3.6 µM.

With GPTQSKYGMCGGIGYSGPTVCASGTTCQVLDPYTSQCLPGAS (designed binder) [PCSK9FL_CBD2 displayed on M13 phage], in assay [7], the ELISA worked out at 1.9 and the s/n Ratio stood at 26.8.

In [8], GCIKSHLWCDPRKDCEAGCICEVWIQCG (designed binder) [N2L.EET31.43.75] showed a Kd of 0.41 µM. This lies in the sub-micromolar range.

As for GCIKSHLWCPRDSDCLAGCVCEVWIQCG (designed binder) [N2L.EET31.32.13], the dissociation constant (Kd) in assay [8] was determined as 35 µM.

Regarding B2, the Kd in assay [9] was found to be 0.8 µM; in [10], 9.4 µM.

GCGQKRMGGWQWCKQDSDCLAGCVCGPNGFCG (designed binder) [N2N-EET-n13] displayed a Kd in assay [11] of 12 µM.

With B3, in assay [1], the ELISA came out at 1.6 and the s/n Ratio stood at 24.3.

VSCTTSKECWSVCQRLHNTSWLGSCMERFCKCVD (designed binder, Charybdotoxin scaffold) [Her3-Fc_ChTx2] showed a Kd in assay [2] of 1.5 µM.

On to GPTQSWQGRCGGIGYSGPTVCASGTTCQVLTPYWSECLPGAS (designed binder, also called Her3_CBD1) [Her3-Fc_CBD1], for which the Kd in assay [2] was determined as 27 µM.

For GPTQSWQGRCGGIGYSGPTVCASGTTCQVLTPYWSECLPGAS (designed binder) [Her3-Fc_CBD1 displayed on M13 phage], in assay [1], the ELISA was found to be 1.7 and the s/n Ratio worked out at 20.2.

GCGWTLRHCKQDSDCLAGCVCRPIWYCG (designed binder) [N2L.EET03.10] displayed a Kd in assay [8] of 4.5 µM.

The molecule GCHRPWWQLWGLCKQDSDCLAGCVCGPNGFCG (designed binder) [HtrA1_EET76] registered a Kd in assay [3] of 9.5 µM.

ACKGVFDACTWKNWRQSRSRECCPNAVCSDKHKWCKWKL (designed binder, Huwentoxin scaffold) [HtrA1_HwTx69] yielded a Kd in assay [3] of 3.7 µM.

In assay [11], GCMPRYGGWHCKQDSDCLAGCVCGPNGFCG (designed binder) [N2N-EET-63] yielded a Kd of 166 µM.

In assay [11], GCRPRFKGWTCKQDSDCLAGCVCGPNGFCG (designed binder) [N2N-EET-n3] came in with a Kd of 180 µM.

Molecule WIPCISAALGCSCKNKVCYFLYQICGESCV (designed binder) [HtrA1_CirA38] had a Kd in assay [3] of 2.5 µM.

With GCIKSHLWCPKTSDCEAGCICEVWIQCG (designed binder) [N2L.EET31.43.24], binding in assay [8] was put at a Kd of 3.5 µM.

For the molecule GCIRSHLWCPPSASCLAGCVCEVWIQCG (designed binder) [N2L.EET31.32.70], binding in assay [8] was put at a Kd of 1 µM.

In the case of GCIRSHVWCKQDSDCEAGCICEIWIQCG (designed binder) [N2L.EET31.43.43], the affinity in assay [8], expressed as Kd, was 3.5 µM.

As to GCGWTLWHCKQDSDCLAGCVCEPIWWCG (designed binder) [N2L-EET-03], in assay [5], the Kd came out at 43.7 µM.

As to ECKGKGAKCSIQWSVYPWKVCCTGSCRSGKC (designed binder, Conotoxin-MVIIA scaffold) [HtrA1_CnTx83], the Kd in assay [3] was determined as 6.4 µM.

The molecule ECKGKGAKCSFMTRQGVQTWCCTGSCRSGKC (designed binder, Conotoxin-MVIIA scaffold) [PCSK9_CnTx2] showed a Kd in assay [6] of 2.8 µM. In other words, the single-digit micromolar range.

Consider ECKGKGAKCSFMTRQGVQTWCCTGSCRSGKC (designed binder, Conotoxin-MVIIA scaffold) [PCSK9_CnTx2 displayed on M13 phage], for which, in assay [12], the ELISA stood at 1.7 and the s/n Ratio turned out to be 25.9.
